According to PMC6511873 (Nucleic Acids Research, 2019):

Columns and labels:
[1] = molecular target: T1, Recombinant Fc-extracellular domain fusion of human Jagged-2 (Homo sapiens, UniProt Q9Y219); assay: ELISA
[2] = molecular target: T1, Recombinant Fc-extracellular domain …; assay: ELISA; remark: listed apart in the source

T1 sequence (Q9Y219 27-1080): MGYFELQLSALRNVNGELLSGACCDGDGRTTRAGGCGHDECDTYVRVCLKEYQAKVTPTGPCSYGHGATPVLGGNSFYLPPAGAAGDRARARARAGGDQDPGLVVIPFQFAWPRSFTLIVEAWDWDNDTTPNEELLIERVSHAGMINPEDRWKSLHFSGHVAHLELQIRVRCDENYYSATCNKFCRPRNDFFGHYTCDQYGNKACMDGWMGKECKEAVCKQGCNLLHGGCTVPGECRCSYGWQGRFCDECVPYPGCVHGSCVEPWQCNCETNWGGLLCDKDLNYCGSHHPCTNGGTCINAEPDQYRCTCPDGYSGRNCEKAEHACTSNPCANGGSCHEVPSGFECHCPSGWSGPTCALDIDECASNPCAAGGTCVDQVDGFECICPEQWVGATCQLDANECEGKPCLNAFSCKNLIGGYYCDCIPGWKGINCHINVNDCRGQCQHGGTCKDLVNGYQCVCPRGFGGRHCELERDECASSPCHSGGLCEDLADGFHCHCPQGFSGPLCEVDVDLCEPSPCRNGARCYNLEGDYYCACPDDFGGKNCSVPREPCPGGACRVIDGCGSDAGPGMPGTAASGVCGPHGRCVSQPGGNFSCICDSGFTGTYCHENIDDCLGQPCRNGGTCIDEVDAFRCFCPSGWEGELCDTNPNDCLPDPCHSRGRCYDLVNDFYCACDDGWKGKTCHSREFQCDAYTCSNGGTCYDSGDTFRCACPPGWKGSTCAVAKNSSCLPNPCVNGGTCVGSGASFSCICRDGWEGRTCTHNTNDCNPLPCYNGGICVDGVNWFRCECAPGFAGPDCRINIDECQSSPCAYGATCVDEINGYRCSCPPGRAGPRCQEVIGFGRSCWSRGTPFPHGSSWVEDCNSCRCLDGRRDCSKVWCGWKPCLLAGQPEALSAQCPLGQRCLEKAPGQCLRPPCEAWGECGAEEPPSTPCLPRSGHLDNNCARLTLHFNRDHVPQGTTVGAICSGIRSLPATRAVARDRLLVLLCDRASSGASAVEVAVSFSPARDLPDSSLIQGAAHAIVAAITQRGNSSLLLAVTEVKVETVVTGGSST

B1: Fab J2/F/R7 (purified) (Fab, V domains shown)
VH: EVQLVESGGGLVQPGGSLRLSCAASGFNIYSSSMHWVRQAPGKGLEWVAYISPSYSYTYYADSVKGRFTISADTSKNTAYLQMNSLRAEDTAVYYCARSYWYSHYAWWWASYSVVGIDYWGQGTLVTVSS
VL: DIQMTQSPSSLSASVGDRVTITCRASQSVSSAVAWYQQKPGKAPKLLIYSASSLYSGVPSRFSGSRSGTDFTLTISSLQPEDFATYYCQQYASYPITFGQGTKVEIK
- EC50 [1]: 24.6 nM

B2: Fab J2/F/R4 (purified) (Fab, V domains shown)
VH: EVQLVESGGGLVQPGGSLRLSCAASGFNLYSSYIHWVRQAPGKGLEWVAYISPSYGYTYYADSVKGRFTISADTSKNTAYLQMNSLRAEDTAVYYCARYYYSGWAVYAGMDYWGQGTLVTVSS
VL: DIQMTQSPSSLSASVGDRVTITCRASQSVSSAVAWYQQKPGKAPKLLIYSASSLYSGVPSRFSGSRSGTDFTLTISSLQPEDFATYYCQQWHHPPAPITFGQGTKVEIK
- binding result [2]: binds

B3: Fab J2/F/R6 (purified) (Fab, V domains shown)
VH: EVQLVESGGGLVQPGGSLRLSCAASGFNLSYSSMHWVRQAPGKGLEWVAYISPSYGYTSYADSVKGRFTISADTSKNTAYLQMNSLRAEDTAVYYCARAHWSSYVSGGWAYPHHSGMDYWGQGTLVTVSS
VL: DIQMTQSPSSLSASVGDRVTITCRASQSVSSAVAWYQQKPGKAPKLLIYSASSLYSGVPSRFSGSRSGTDFTLTISSLQPEDFATYYCQQSYASVLITFGQGTKVEIK
- binding result [2]: binds
